The text below walks through data of patent US20110086767A1, “MUTANTS OF GLYCOSIDE HYDROLASES AND USES THEREOF FOR SYNTHESIZING COMPLEX OLIGOSACCHARIDES AND DISACCHARIDE INTERMEDIATES” (Institut Pasteur, priority 2008, published 2011).

The assay can be described thus: HPLC screening of double-mutant libraries for variants able to glucosylate D-GlcpNAc. Type of assay: biochemical. The settings on record: α-D-Glcp-(1→4)-α-D-GlcpNAc (ED) from sucrose and D-GlcpNAc, microplate format. As for the experimental part: The protocol was established to enable the rapid identification of clones for which D-GlcpNAc glucosylation was improved. To obtain higher amounts of enzymes and facilitate detection of glucosylated compounds upon HPLC screening, mutants were produced in 96-DeepWell Format plates. Storage microplates containing monomutants were thawed and replicated to inoculate a starter culture in 96-well microplates containing, in each well, 150 μL LB medium supplemented with ampicillin (100 μg/mL). After growth for 24 h at 30° C. under agitation (200 rpm), plates were duplicated into 96-Deep Well plates containing, in each well, 1.1 mL LB medium supplemented with ampicillin (100 μg/mL) and IPTG (1 mM) to induce GST-AS expression. Cultures were then grown for 24 h at 30° C. under agitation (200 rpm). Plates were centrifuged (20 min, 3000 g, 4° C.) and the supernatant was removed. The cell pellet was resuspended in 200 μL of lysozyme (0.5 mg/mL), followed by freezing at −80° C. for 8 to 12 h. After thawing at room temperature, 100 μL of sucrose and 100 μL of acceptor (each at a final concentration of 73 mM) were added to each well. Enzymatic reaction was incubated at 30° C. during 24 h under agitation. The DeepWell plates were then centrifuged (20 min, 3000 g, 4° C.) and 300 μL of the supernatant was transferred to a filter micro-plate (PVDF 0.2 μm) to be clarified. Supernatant filtration was carried out by centrifugation of the filter micro-plate (5 min, 2000 g, 4° C.) into a novel microplate for screening.
The method for the expression of the mutant libraries is described in Example 1-1.
Acceptor reaction products were analyzed by HPLC analysis using a C18-AQ column (Bischoff C18, 125×4 mm, 3 μm) kept at room temperature and eluted with 0.6 mL/min of ultra-pure water to detect α-D-Glcp-(1→4)-α-D-GlcpNAc formation (analysis time: 7 min). To evaluate the efficiency of the glucosylation reaction, it was carried out complementary HPLC analyses with a Biorad HPX-87K Carbohydrate Analysis column (maintained at 65° C., and eluted at a flow rate of 0.6 mL/min with ultra-pure water). By this way, it was possible to measure sucrose consumption by RI detection and concomitant α-D-Glcp-(1-4)-α-D-GlcpNAc formation by UV220 nm and determine mutant ability to synthesize the desired disaccharide α-D-Glcp-(1→4)-α-D-GlcpNAc (i.e., % Glucosyl units transferred onto acceptor derivatives=[Glucosyl units transferred onto acceptor derivatives]/[Glucosyl units transferred from initial sucrose]×100)
All clones producing sucrose-utilizing variants were then picked and cultured in 96-well microplates. Following cell lysis, the acceptor reaction in the presence of D-GlcpNAc was then carried out in microplate format. HLPC analysis time for each clone was reduced to 7 min for detection of α-D-Glcp-(1→4)-α-D-GlcpNAc. When disaccharide formation was detected, complementary analyses were performed to determine sucrose consumption and disaccharide formation with more accuracy in order to calculate the glucosylation yield.

B1: F290V: single mutant F290V of N. polysaccharea amylosucrase (protein)
chain: SPNSQYLKTRILDIYTPEQRAGIEKSEDWRQFSRRMDTHFPKLMNELDSVYGNNEALLPMLEMLLAQAWQSYSQRNSSLKDIDIARENNPDWILSNKQVGGVCYVDLFAGDLKGLKDKIPYFQELGLTYLHLMPLFKCPEGKSDGGYAVSSYRDVNPALGTIGDLREVIAALHEAGISAVVDFIFNHTSNEHEWAQRCAAGDPLFDNFYYIFPDRRMPDQYDRTLREIFPDQHPGGFSQLEDGRWVWTTFNSFQWDLNYSNPWVFRAMAGEMLFLANLGVDILRMDAVAVIWKQMGTSCENLPQAHALIRAFNAVMRIAAPAVFFKSEAIVHPDQVVQYIGQDECQIGYNPLQMALLWNTLATREVNLLHQALTYRHNLPEHTAWVNYVRSHDDIGWTFADEDAAYLGISGYDHRQFLNRFFVNRFDGSFARGVPFQYNPSTGDCRVSGTAAALVGLAQDDPHAVDRIKLLYSIALSTGGLPLIYLGDEVGTLNDDDWSQDSNKSDDSRWAHRPRYNEALYAQRNDPSTAAGQIYQDLRHMIAVRQSNPRFDGGRLVTFNTNNKHIIGYIRNNALLAFGNFSEYPQTVTAHTLQAMPFKAHDLIGGKTVSLNQDLTLQPYQVMWLEIA
Regarding B1, the “Glusosylation Yield to synthesize ED” value stood at 100%.

B2: I228V-F290K: double mutant I228V, F290K of N. polysaccharea amylosucrase (protein)
chain: SPNSQYLKTRILDIYTPEQRAGIEKSEDWRQFSRRMDTHFPKLMNELDSVYGNNEALLPMLEMLLAQAWQSYSQRNSSLKDIDIARENNPDWILSNKQVGGVCYVDLFAGDLKGLKDKIPYFQELGLTYLHLMPLFKCPEGKSDGGYAVSSYRDVNPALGTIGDLREVIAALHEAGISAVVDFIFNHTSNEHEWAQRCAAGDPLFDNFYYIFPDRRMPDQYDRTLREVFPDQHPGGFSQLEDGRWVWTTFNSFQWDLNYSNPWVFRAMAGEMLFLANLGVDILRMDAVAKIWKQMGTSCENLPQAHALIRAFNAVMRIAAPAVFFKSEAIVHPDQVVQYIGQDECQIGYNPLQMALLWNTLATREVNLLHQALTYRHNLPEHTAWVNYVRSHDDIGWTFADEDAAYLGISGYDHRQFLNRFFVNRFDGSFARGVPFQYNPSTGDCRVSGTAAALVGLAQDDPHAVDRIKLLYSIALSTGGLPLIYLGDEVGTLNDDDWSQDSNKSDDSRWAHRPRYNEALYAQRNDPSTAAGQIYQDLRHMIAVRQSNPRFDGGRLVTFNTNNKHIIGYIRNNALLAFGNFSEYPQTVTAHTLQAMPFKAHDLIGGKTVSLNQDLTLQPYQVMWLEIA
Take B2: the “Glusosylation Yield to synthesize ED” value is on record as 89%.

B3: I228A-F290H: double mutant I228A, F290H of N. polysaccharea amylosucrase (protein)
chain: SPNSQYLKTRILDIYTPEQRAGIEKSEDWRQFSRRMDTHFPKLMNELDSVYGNNEALLPMLEMLLAQAWQSYSQRNSSLKDIDIARENNPDWILSNKQVGGVCYVDLFAGDLKGLKDKIPYFQELGLTYLHLMPLFKCPEGKSDGGYAVSSYRDVNPALGTIGDLREVIAALHEAGISAVVDFIFNHTSNEHEWAQRCAAGDPLFDNFYYIFPDRRMPDQYDRTLREAFPDQHPGGFSQLEDGRWVWTTFNSFQWDLNYSNPWVFRAMAGEMLFLANLGVDILRMDAVAHIWKQMGTSCENLPQAHALIRAFNAVMRIAAPAVFFKSEAIVHPDQVVQYIGQDECQIGYNPLQMALLWNTLATREVNLLHQALTYRHNLPEHTAWVNYVRSHDDIGWTFADEDAAYLGISGYDHRQFLNRFFVNRFDGSFARGVPFQYNPSTGDCRVSGTAAALVGLAQDDPHAVDRIKLLYSIALSTGGLPLIYLGDEVGTLNDDDWSQDSNKSDDSRWAHRPRYNEALYAQRNDPSTAAGQIYQDLRHMIAVRQSNPRFDGGRLVTFNTNNKHIIGYIRNNALLAFGNFSEYPQTVTAHTLQAMPFKAHDLIGGKTVSLNQDLTLQPYQVMWLEIA
Regarding B3, the “Glusosylation Yield to synthesize ED” value is reported as 88%.

B4: I228V-F290V: double mutant I228V, F290V of N. polysaccharea amylosucrase (protein)
chain: SPNSQYLKTRILDIYTPEQRAGIEKSEDWRQFSRRMDTHFPKLMNELDSVYGNNEALLPMLEMLLAQAWQSYSQRNSSLKDIDIARENNPDWILSNKQVGGVCYVDLFAGDLKGLKDKIPYFQELGLTYLHLMPLFKCPEGKSDGGYAVSSYRDVNPALGTIGDLREVIAALHEAGISAVVDFIFNHTSNEHEWAQRCAAGDPLFDNFYYIFPDRRMPDQYDRTLREVFPDQHPGGFSQLEDGRWVWTTFNSFQWDLNYSNPWVFRAMAGEMLFLANLGVDILRMDAVAVIWKQMGTSCENLPQAHALIRAFNAVMRIAAPAVFFKSEAIVHPDQVVQYIGQDECQIGYNPLQMALLWNTLATREVNLLHQALTYRHNLPEHTAWVNYVRSHDDIGWTFADEDAAYLGISGYDHRQFLNRFFVNRFDGSFARGVPFQYNPSTGDCRVSGTAAALVGLAQDDPHAVDRIKLLYSIALSTGGLPLIYLGDEVGTLNDDDWSQDSNKSDDSRWAHRPRYNEALYAQRNDPSTAAGQIYQDLRHMIAVRQSNPRFDGGRLVTFNTNNKHIIGYIRNNALLAFGNFSEYPQTVTAHTLQAMPFKAHDLIGGKTVSLNQDLTLQPYQVMWLEIA
On to B4, for which the “Glusosylation Yield to synthesize ED” value runs as follows: (listed as DM4_P1_G7) 90%; (listed as DM4_P2_B10) 47%.

B5: F290R: single mutant F290R of N. polysaccharea amylosucrase (protein)
chain: SPNSQYLKTRILDIYTPEQRAGIEKSEDWRQFSRRMDTHFPKLMNELDSVYGNNEALLPMLEMLLAQAWQSYSQRNSSLKDIDIARENNPDWILSNKQVGGVCYVDLFAGDLKGLKDKIPYFQELGLTYLHLMPLFKCPEGKSDGGYAVSSYRDVNPALGTIGDLREVIAALHEAGISAVVDFIFNHTSNEHEWAQRCAAGDPLFDNFYYIFPDRRMPDQYDRTLREIFPDQHPGGFSQLEDGRWVWTTFNSFQWDLNYSNPWVFRAMAGEMLFLANLGVDILRMDAVARIWKQMGTSCENLPQAHALIRAFNAVMRIAAPAVFFKSEAIVHPDQVVQYIGQDECQIGYNPLQMALLWNTLATREVNLLHQALTYRHNLPEHTAWVNYVRSHDDIGWTFADEDAAYLGISGYDHRQFLNRFFVNRFDGSFARGVPFQYNPSTGDCRVSGTAAALVGLAQDDPHAVDRIKLLYSIALSTGGLPLIYLGDEVGTLNDDDWSQDSNKSDDSRWAHRPRYNEALYAQRNDPSTAAGQIYQDLRHMIAVRQSNPRFDGGRLVTFNTNNKHIIGYIRNNALLAFGNFSEYPQTVTAHTLQAMPFKAHDLIGGKTVSLNQDLTLQPYQVMWLEIA
As to B5, the “Glusosylation Yield to synthesize ED” value amounted to 100%.

B6: F229V: single mutant F229V of N. polysaccharea amylosucrase (protein)
chain: SPNSQYLKTRILDIYTPEQRAGIEKSEDWRQFSRRMDTHFPKLMNELDSVYGNNEALLPMLEMLLAQAWQSYSQRNSSLKDIDIARENNPDWILSNKQVGGVCYVDLFAGDLKGLKDKIPYFQELGLTYLHLMPLFKCPEGKSDGGYAVSSYRDVNPALGTIGDLREVIAALHEAGISAVVDFIFNHTSNEHEWAQRCAAGDPLFDNFYYIFPDRRMPDQYDRTLREIVPDQHPGGFSQLEDGRWVWTTFNSFQWDLNYSNPWVFRAMAGEMLFLANLGVDILRMDAVAFIWKQMGTSCENLPQAHALIRAFNAVMRIAAPAVFFKSEAIVHPDQVVQYIGQDECQIGYNPLQMALLWNTLATREVNLLHQALTYRHNLPEHTAWVNYVRSHDDIGWTFADEDAAYLGISGYDHRQFLNRFFVNRFDGSFARGVPFQYNPSTGDCRVSGTAAALVGLAQDDPHAVDRIKLLYSIALSTGGLPLIYLGDEVGTLNDDDWSQDSNKSDDSRWAHRPRYNEALYAQRNDPSTAAGQIYQDLRHMIAVRQSNPRFDGGRLVTFNTNNKHIIGYIRNNALLAFGNFSEYPQTVTAHTLQAMPFKAHDLIGGKTVSLNQDLTLQPYQVMWLEIA
Regarding B6, the “Glusosylation Yield to synthesize ED” value is on record as 88%.
